Consider three molecules from PMC7611026 (Journal of molecular biology, 2008).

Experiment [1] concerns the target RNase E(1–762), hexahistidine-tagged, coexpressed with RhlB (E. coli) (UniProt P21513). As to the kind of experiment: pull-down + SEC.
Experiment [2] concerns the target RNase E, genomically encoded, C-terminally FLAG-tagged (rne-FLAG, strain TM522) (E. coli K12, UniProt P21513 1-1061). As to the kind of experiment: co-IP.
Experiment [3] has as its target T1, RhlB, individually prepared recombinant (E. coli, UniProt P0A8J8 1-421).
T1 sequence: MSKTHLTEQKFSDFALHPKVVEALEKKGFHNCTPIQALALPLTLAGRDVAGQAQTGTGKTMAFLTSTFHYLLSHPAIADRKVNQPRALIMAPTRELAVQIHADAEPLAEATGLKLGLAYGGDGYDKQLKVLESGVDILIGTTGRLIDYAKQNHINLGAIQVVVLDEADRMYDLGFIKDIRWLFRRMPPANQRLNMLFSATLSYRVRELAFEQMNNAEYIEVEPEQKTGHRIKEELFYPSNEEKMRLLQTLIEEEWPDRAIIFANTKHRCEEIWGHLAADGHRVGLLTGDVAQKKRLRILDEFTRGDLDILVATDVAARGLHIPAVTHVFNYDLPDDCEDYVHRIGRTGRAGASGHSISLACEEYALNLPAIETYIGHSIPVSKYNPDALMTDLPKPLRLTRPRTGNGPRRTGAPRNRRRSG
As to the kind of experiment: cross-linking.

Chain of RNase E, genomically encoded, C-terminally FLAG-tagged (rne-FLAG, strain TM522) (P21513 whole entry): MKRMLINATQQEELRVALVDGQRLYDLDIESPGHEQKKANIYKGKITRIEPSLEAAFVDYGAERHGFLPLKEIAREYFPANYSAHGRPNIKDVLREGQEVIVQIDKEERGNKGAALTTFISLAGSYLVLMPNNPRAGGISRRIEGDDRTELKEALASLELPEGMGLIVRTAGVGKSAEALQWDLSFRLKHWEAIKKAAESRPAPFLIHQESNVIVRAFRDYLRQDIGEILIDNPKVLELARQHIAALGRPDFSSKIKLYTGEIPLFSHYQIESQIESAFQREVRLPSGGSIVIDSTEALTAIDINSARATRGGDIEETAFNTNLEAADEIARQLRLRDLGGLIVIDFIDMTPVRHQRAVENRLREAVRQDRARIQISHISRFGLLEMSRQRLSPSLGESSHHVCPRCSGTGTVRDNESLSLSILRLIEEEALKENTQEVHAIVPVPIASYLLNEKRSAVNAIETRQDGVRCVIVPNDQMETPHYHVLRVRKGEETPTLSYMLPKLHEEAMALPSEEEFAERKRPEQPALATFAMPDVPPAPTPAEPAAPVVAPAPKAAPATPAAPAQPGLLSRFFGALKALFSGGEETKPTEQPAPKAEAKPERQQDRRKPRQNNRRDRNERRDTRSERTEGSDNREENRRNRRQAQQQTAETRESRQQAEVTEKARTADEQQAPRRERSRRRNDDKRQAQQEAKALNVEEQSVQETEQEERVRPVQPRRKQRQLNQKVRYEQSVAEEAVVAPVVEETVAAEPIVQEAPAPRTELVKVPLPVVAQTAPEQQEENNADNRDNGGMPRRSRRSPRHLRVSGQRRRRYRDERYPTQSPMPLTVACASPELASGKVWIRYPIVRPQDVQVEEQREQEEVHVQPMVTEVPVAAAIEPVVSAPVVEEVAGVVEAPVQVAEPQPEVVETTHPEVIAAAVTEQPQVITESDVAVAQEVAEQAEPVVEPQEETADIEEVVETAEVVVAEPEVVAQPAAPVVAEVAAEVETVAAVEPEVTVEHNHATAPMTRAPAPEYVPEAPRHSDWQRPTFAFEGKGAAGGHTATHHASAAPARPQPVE
Chain of RNase E(1–762), hexahistidine-tagged, coexpressed with RhlB (E. coli) (P21513 1-762): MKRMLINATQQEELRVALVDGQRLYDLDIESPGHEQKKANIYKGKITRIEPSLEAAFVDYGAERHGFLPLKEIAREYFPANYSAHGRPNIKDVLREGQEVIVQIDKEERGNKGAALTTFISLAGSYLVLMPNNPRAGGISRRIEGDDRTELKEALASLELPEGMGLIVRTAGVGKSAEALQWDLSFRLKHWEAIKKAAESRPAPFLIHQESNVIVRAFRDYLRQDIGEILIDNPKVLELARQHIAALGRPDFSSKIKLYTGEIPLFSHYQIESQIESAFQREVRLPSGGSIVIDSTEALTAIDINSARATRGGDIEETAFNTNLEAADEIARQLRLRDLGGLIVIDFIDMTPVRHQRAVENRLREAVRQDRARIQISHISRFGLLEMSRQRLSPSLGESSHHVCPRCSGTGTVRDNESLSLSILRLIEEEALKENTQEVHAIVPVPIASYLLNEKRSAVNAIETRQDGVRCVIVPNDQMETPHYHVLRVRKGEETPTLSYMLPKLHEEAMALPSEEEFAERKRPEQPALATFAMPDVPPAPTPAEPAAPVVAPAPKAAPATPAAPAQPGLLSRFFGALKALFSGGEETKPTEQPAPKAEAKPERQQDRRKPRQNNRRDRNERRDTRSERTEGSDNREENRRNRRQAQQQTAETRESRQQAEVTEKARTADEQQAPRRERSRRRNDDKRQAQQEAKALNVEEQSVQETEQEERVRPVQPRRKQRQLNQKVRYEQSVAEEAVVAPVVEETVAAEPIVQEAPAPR

B1: RNA helicase B (RhlB), recombinant, coexpressed with RNase E from pRSF_rnerhlB (enzyme)
chain: MSKTHLTEQKFSDFALHPKVVEALEKKGFHNCTPIQALALPLTLAGRDVAGQAQTGTGKTMAFLTSTFHYLLSHPAIADRKVNQPRALIMAPTRELAVQIHADAEPLAEATGLKLGLAYGGDGYDKQLKVLESGVDILIGTTGRLIDYAKQNHINLGAIQVVVLDEADRMYDLGFIKDIRWLFRRMPPANQRLNMLFSATLSYRVRELAFEQMNNAEYIEVEPEQKTGHRIKEELFYPSNEEKMRLLQTLIEEEWPDRAIIFANTKHRCEEIWGHLAADGHRVGLLTGDVAQKKRLRILDEFTRGDLDILVATDVAARGLHIPAVTHVFNYDLPDDCEDYVHRIGRTGRAGASGHSISLACEEYALNLPAIETYIGHSIPVSKYNPDALMTDLPKPLRLTRPRTGNGPRRTGAPRNRRRSG
As for B1, the stoichiometry N (RhlB protomer per RNase E protomer) in experiment [1] worked out at 1.

B2: PNPase, endogenous, in the cell-extracted FLAG-tagged degradosome (enzyme)
chain: MLNPIVRKFQYGQHTVTLETGMMARQATAAVMVSMDDTAVFVTVVGQKKAKPGQDFFPLTVNYQERTYAAGRIPGSFFRREGRPSEGETLIARLIDRPIRPLFPEGFVNEVQVIATVVSVNPQVNPDIVAMIGASAALSLSGIPFNGPIGAARVGYINDQYVLNPTQDELKESKLDLVVAGTEAAVLMVESEAQLLSEDQMLGAVVFGHEQQQVVIQNINELVKEAGKPRWDWQPEPVNEALNARVAALAEARLSDAYRITDKQERYAQVDVIKSETIATLLAEDETLDENELGEILHAIEKNVVRSRVLAGEPRIDGREKDMIRGLDVRTGVLPRTHGSALFTRGETQALVTATLGTARDAQVLDELMGERTDTFLFHYNFPPYSVGETGMVGSPKRREIGHGRLAKRGVLAVMPDMDKFPYTVRVVSEITESNGSSSMASVCGASLALMDAGVPIKAAVAGIAMGLVKEGDNYVVLSDILGDEDHLGDMDFKVAGSRDGISALQMDIKIEGITKEIMQVALNQAKGARLHILGVMEQAINAPRGDISEFAPRIHTIKINPDKIKDVIGKGGSVIRALTEETGTTIEIEDDGTVKIAATDGEKAKHAIRRIEEITAEIEVGRVYTGKVTRIVDFGAFVAIGGGKEGLVHISQIADKRVEKVTDYLQMGQEVPVKVLEVDRQGRIRLSIKEATEQSQPAAAPEAPAAEQGE
As to B2, in experiment [2], the “PNPase component in aceE/aceF-null cells relative to wild-type control cells” value was roughly 3 fold and the “stoichiometry N” value is ~2 PNPase monomers per RNase E monomer.

B3: RNase E(628–843) (domain or fragment)
chain: ERTEGSDNREENRRNRRQAQQQTAETRESRQQAEVTEKARTADEQQAPRRERSRRRNDDKRQAQQEAKALNVEEQSVQETEQEERVRPVQPRRKQRQLNQKVRYEQSVAEEAVVAPVVEETVAAEPIVQEAPAPRTELVKVPLPVVAQTAPEQQEENNADNRDNGGMPRRSRRSPRHLRVSGQRRRRYRDERYPTQSPMPLTVACASPELASGKVW
Consider B3, for which the binding result in experiment [3] is given as “binds”.
